The values that follow come from article PMC2755957 (The Journal of Biological Chemistry, 2009).

Where a chain is given by its changes, count along the chain named. In names and notes the source's numbering stands.

The labels stand for the following.
T1: mouse Δ1–24-L-PGDS (lipocalin type prostaglandin D synthase) (Mus musculus, UniProt O09114, S45A/S81A/T67A)
T1 sequence (O09114 25-189 S45A/T67A/S81A): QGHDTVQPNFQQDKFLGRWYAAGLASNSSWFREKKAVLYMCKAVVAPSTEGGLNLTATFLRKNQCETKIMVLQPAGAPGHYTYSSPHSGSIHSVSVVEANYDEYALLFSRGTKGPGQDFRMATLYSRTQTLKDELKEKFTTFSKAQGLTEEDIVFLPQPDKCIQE

B1: Δ^1–24-L-PGDS + P110A (Mus musculus; P110A) (protein)
chain: MAALRMLWMGLVLLGLLGFPQTPAQGHDTVQPNFQQDKFLGRWYSAGLASNSSWFREKKAVLYMCKTVVAPSTEGGLNLTSTFLRKNQCETKIMVLQPAGAPGHYTYSSAHSGSIHSVSVVEANYDEYALLFSRGTKGPGQDFRMATLYSRTQTLKDELKEKFTTFSKAQGLTEEDIVFLPQPDKCIQE
B2: Δ^1–24-L-PGDS + S45A/S81A (Mus musculus; S45A/S81A) (protein)
chain: B1 chain with S45A, S81A, A110P
B3: Δ^1–24-L-PGDS + S45A/T67A (Mus musculus; S45A/T67A) (protein)
chain: B1 chain with S45A, T67A, A110P
B4: Δ^1–24-L-PGDS + T67A/S81A (Mus musculus; S81A/T67A) (protein)
chain: B1 chain with T67A, S81A, A110P
B5: mouse Δ1–24-L-PGDS (lipocalin type prostaglandin D synthase) (Mus musculus; W54A) (protein)
chain: T1 sequence (O09114 25-189 S45A/T67A/S81A) with A21S, W30A, A43T, A57S
B6: mouse Δ1–24-L-PGDS (lipocalin type prostaglandin D synthase) (Mus musculus; T67A) (protein)
chain: T1 sequence (O09114 25-189 S45A/T67A/S81A) with A21S, A57S
B7: mouse Δ1–24-L-PGDS (lipocalin type prostaglandin D synthase) (Mus musculus; S45A) (protein)
chain: T1 sequence (O09114 25-189 S45A/T67A/S81A) with A43T, A57S
B8: mouse Δ1–24-L-PGDS (lipocalin type prostaglandin D synthase) (Mus musculus; H111A) (protein)
chain: T1 sequence (O09114 25-189 S45A/T67A/S81A) with A21S, A43T, A57S, H87A
B9: mouse Δ1–24-L-PGDS (lipocalin type prostaglandin D synthase) (Mus musculus; S81A) (protein)
chain: T1 sequence (O09114 25-189 S45A/T67A/S81A) with A21S, A43T
B10: mouse Δ1–24-L-PGDS (lipocalin type prostaglandin D synthase) (Mus musculus; S45A/S81A/T67A) (protein)
chain: T1 sequence (O09114 25-189 S45A/T67A/S81A)
B11: mouse Δ1–24-L-PGDS (lipocalin type prostaglandin D synthase) (Mus musculus; H116A) (protein)
chain: T1 sequence (O09114 25-189 S45A/T67A/S81A) with A21S, A43T, A57S, H92A

For orientation: Km means the substrate concentration at which the rate is half of its maximum. A word on the Vmax: it is the top rate of the reaction or transport when substrate is in excess. By Kd is commonly meant the constant that tells how readily two partners part at equilibrium. Higher therefore signals weaker binding.

Substrate in one data set: [H][C@]12C[C@]([H])(OO1)[C@H](C/C=C\CCCC(=O)O)[C@H]2/C=C/[C@@H](O)CCCCC
Briefly: purified protein, by the assay type. Conditions: pH 8.0; 25.0 °C.
Take B1: the Km turned out to be 1.6 ± 0.5 µM and the Vmax came out at 4.8 µmol/min/mg. For B2, the Km is 1.2 ± 0.3 µM and the Vmax was found to be 1.5 µmol/min/mg. On the same counts, the results for B3 are 2.1 ± 0.6 µM and 1.6 µmol/min/mg. For the molecule B4, the Km worked out at 2.1 ± 0.2 µM and the Vmax was found to be 1.3 µmol/min/mg.

For B5, the Km was 1.3 ± 0.5 µM and the Vmax is 3.6 µmol/min/mg.

Consider B6, for which the Km turned out to be 2.8 ± 0.9 µM and the maximal velocity (Vmax) is 2.8 µmol/min/mg. In the case of B7, the Km amounted to 0.5 ± 0.2 µM and the Vmax amounted to 2.3 µmol/min/mg.

Consider B8, for which the Km is 1.4 ± 0.4 µM and the Vmax stood at 5.1 µmol/min/mg. On the same counts, the results for B9 are 1.5 ± 0.4 µM and 4.7 µmol/min/mg. On the same counts, the results for B10 are 1.2 ± 0.1 µM and 0.5 µmol/min/mg.

As for B11, the Km was 1.4 ± 0.1 µM and the Vmax amounted to 4.4 µmol/min/mg.

In another data set the target is T1, mouse Δ1–24-L-PGDS (lipocalin type prostaglandin D synthase). Briefly: biochemical.
Conditions: not given
`CC1=C(/C=C/C(C)=C/C=C/C(C)=C/C(=O)O)C(C)(C)CCC1` [all-trans-retinoic acid] registered an equilibrium dissociation constant (Kd) of 418 ± 124 nM.
